Experimental data published in US20130216549A1.

Target: recombinant human IP-10 (Peprotech) (human) (UniProt P02778)
Assay: cell-based or functional assay

recombinant human IP-10 (Peprotech) (human), sequence (P02778 22-98 limits assumed): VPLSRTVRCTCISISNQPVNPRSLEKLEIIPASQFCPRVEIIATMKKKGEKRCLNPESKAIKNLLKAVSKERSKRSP

Calcium flux IC50 (nM); 10 nM hIP-10: 89 nM
Chemotaxis IC50 (nM); 1 nM hIP-10: 90 nM
B1: CC21R3P5_C5 (scFv format) (scFv, part only; not given: scFv linker, part only)
scFv, part: QVQLVQSGGGVVQPGRSLRLSCAASGFTFSTYGMHWVRQAPGKGLEWVAVISYDGGTKYYADSVKGRFTISRDNSMKTLYLQMNSLRTEDTAVYYCAKDLGDLPPGLDYWGRGTMVTVSSCHEMICALLYSYNTHESIZEDSYELTQPPSVSVALGQTATITCGGSSIESKSVHWYQEKPGQAPVLVIYKDSNRPSVIPERFSGSNSGNTATLTIGRAQAGDEADYYCQVWDSSTGVVFGGGTKLTVL
